Laboratory results from patent US20210253724A1.

Legend:
[1] = target: human 4-1BB (CD137) on Jurkat-hu4-1BB-NFκB-luc2 reporter cells (human) (UniProt Q07011); assay: cell-based or functional assay; parameters: AUC of NFκB-luciferase activation curve, no FAP+ cells / AUC of NFκB-luciferase activation curve, with WM-266-4 cells: unit not given beside the values
[2] = target: human 4-1BB (CD137) on Jurkat-hu4-1BB-NFκB-luc2 reporter cells (human) (UniProt Q07011); assay: cell-based or functional assay; parameters: AUC of NFκB-luciferase activation curve, no CEA+ cells / AUC of NFκB-luciferase activation curve, with CHO-k1-cynoCEACAM5 clone 8: unit not given beside the values
[3] = target: human CEACAM5 (CEA) on cells (human) (UniProt P06731); assay: flow cytometry on MKN45 cells; parameters: unit not given beside the values
Sequence of human CEACAM5 (CEA) on cells (human) (P06731 35-685 E398K limits assumed): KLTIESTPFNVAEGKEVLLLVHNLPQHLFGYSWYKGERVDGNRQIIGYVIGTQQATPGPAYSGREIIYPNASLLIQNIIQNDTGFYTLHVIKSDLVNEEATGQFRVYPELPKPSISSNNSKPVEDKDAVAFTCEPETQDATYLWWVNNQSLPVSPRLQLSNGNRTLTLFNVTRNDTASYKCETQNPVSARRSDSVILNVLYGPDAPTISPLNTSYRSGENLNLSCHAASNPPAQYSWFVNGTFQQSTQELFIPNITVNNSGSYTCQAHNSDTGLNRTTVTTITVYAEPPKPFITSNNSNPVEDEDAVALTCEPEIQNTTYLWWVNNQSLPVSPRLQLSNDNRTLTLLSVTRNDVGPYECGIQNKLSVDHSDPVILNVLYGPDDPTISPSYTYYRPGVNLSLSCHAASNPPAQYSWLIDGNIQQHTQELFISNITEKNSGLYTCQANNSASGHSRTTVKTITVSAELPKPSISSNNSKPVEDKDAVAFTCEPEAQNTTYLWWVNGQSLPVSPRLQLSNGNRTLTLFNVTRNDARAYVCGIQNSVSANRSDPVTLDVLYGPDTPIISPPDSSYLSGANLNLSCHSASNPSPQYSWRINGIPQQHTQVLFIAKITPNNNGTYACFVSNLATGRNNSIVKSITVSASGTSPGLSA

[4] = target: cynomolgus monkey CEACAM5 on CHO-k1-cynoCEACAM5 clone 8 cells (cynomolgus monkey); assay: flow cytometry on CHO-k1-cynoCEACAM5 clone 8; parameters: unit not given beside the values
[5] = target: human FAP on NIH/3T3-huFAP clone 19 cells (human) (UniProt Q12884); assay: flow cytometry on NIH/3T3-huFAP clone 19 cells
[6] = target: human CEACAM5 (CEA) on cells (human) (UniProt P06731); assay: flow cytometry on CHO-k1-humanCEACAM5 clone 11
[7] = target: human CEACAM5 (CEA) on cells (human) (UniProt P06731); assay: flow cytometry on CHO-k1-humanCEACAM5 clone 12
[8] = target: human CEACAM5 (CEA) on cells (human) (UniProt P06731); assay: flow cytometry on CHO-k1-humanCEACAM5 clone 13

Question: Which results are given for “Untargeted (DP47) huIgG1 P329GLALA (antibody)”?
Answer: AUC of NFκB-luciferase activation curve, no FAP+ cells [1]: 286; AUC of NFκB-luciferase activation curve, with NIH/3T3-huFAP clone 19 cells [1]: 521; AUC of NFκB-luciferase activation curve, with WM-266-4 cells [1]: 384; AUC of NFκB-luciferase activation curve, no CEA+ cells [2]: 47; AUC of NFκB-luciferase activation curve, with CHO-k1-cynoCEACAM5 clone 8 [2]: 77; AUC of NFκB-luciferase activation curve, with CHO-k1-humanCEACAM5 clone 11 [2]: 264; AUC of NFκB-luciferase activation curve, with CHO-k1-humanCEACAM5 clone 12 [2]: 313; AUC [3]: 420; AUC [4]: 219; AUC [5]: 362; EC50 [5]: 2.29 nM; AUC [6]: 746; AUC [7]: 1190; AUC [8]: 1870
